Measurements from patent publication US20080014583.

What was measured:
[1] = test system: T1, COP1-interaction-defective VPmt mutant Flag-TRB3
T1 sequence: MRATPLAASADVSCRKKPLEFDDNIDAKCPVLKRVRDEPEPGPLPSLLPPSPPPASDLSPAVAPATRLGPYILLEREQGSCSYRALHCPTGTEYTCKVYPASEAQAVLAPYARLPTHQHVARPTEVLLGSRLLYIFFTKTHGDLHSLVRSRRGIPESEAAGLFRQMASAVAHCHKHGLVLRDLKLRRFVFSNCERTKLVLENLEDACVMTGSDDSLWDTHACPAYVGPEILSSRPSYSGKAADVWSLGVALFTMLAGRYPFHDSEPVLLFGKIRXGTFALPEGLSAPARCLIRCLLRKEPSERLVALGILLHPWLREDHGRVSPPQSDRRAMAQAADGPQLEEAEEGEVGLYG

[2] = test system: T2, Flag-tagged TRB3
T2 sequence: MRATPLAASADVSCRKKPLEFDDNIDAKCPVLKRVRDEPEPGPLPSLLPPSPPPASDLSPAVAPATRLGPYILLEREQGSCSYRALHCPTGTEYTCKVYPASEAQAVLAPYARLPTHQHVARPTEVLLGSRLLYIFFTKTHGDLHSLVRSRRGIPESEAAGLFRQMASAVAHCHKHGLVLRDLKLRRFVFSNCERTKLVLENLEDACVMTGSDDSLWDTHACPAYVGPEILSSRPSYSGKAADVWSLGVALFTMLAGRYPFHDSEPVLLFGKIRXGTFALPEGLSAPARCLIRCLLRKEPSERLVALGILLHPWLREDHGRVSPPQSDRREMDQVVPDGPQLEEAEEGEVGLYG

HA-tagged COP1 (Constitutive Photomorphogenic Protein 1)
degradation of TRB3 protein after removal of MG132 [1]: COP1+DET1 promoted degradation of wild-type but not VPmt TRB3 protein
ubiquitination of TRB3, MS analysis [1]: COP1 promotes ubiquitination of wild-type but not COP1-interaction defective (VPmt) TRB3 at 3 major sites
degradation of TRB3 protein after removal of MG132 [2]: COP1+DET1 promoted degradation of wild-type but not VPmt TRB3 protein
ubiquitination of TRB3, MS analysis [2]: COP1 promotes ubiquitination of wild-type but not COP1-interaction defective (VPmt) TRB3 at 3 major sites
